Measurements as given in IntAct's records for PubMed 28436967.

B1: Katanin p60 ATPase-containing subunit A1 (Mus musculus), Q9WV86 (parent)
chain: MSLQMIVENVKLAREYALLGNYDSAMVYYQGVLDQMNKYLYSVKDTHLRQKWQQVWQEINVEAKQVKDIMKTLESFKLDITSLQAAQHELPAAEGEVWSLPVPVERRPLPGPRKRQSSQHSDPKPHSNRPSTVVRAHRPSPQNLHNDRGKAVRSREKKEQSKGREEKNKLPAAVTEPEANKFDGTGYDKDLVEALERDIISQNPNVRWYDIADLVEAKKLLQEAVVLPMWMPEFFKGIRRPWKGVLMVGPPGTGKTLLAKAVATECKTTFFNVSSSTLTSKYRGESEKLVRLLFEMARFYSPATIFIDEIDSICSRRGTSEEHEASRRMKAELLVQMDGVGGASENDDPSKMVMVLAATNFPWDIDEALRRRLEKRIYIPLPSAKGREELLRISLRELELADDVNLASIAENMEGYSGADITNVCRDASLMAMRRRIEGLTPEEIRNLSREAMHMPTTMEDFEMALKKISKSVSAADIERYEKWIVEFGSC

Variants of: B1
Details: with ktnb1_mouse Katnb1, Q8BG40
Chain of ktnb1_mouse Katnb1, Q8BG40 (Q8BG40 whole entry): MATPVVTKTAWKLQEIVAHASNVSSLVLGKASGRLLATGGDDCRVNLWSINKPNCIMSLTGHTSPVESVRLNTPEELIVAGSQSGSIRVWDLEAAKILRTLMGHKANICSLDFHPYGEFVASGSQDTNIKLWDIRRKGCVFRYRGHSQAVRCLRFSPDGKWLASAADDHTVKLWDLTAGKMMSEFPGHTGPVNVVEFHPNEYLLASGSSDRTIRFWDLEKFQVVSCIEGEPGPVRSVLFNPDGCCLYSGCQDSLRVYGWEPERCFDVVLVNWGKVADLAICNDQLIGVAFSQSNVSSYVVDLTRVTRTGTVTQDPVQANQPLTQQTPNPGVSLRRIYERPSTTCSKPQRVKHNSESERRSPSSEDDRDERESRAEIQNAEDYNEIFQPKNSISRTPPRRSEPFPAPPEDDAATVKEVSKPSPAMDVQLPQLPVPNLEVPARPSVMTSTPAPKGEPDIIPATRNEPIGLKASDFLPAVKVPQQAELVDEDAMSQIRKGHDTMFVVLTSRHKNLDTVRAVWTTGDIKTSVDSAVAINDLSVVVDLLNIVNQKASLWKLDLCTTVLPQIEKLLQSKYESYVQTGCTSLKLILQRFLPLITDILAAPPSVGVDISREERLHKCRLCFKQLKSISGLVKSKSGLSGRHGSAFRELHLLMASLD

effect of a mutation on the interaction	Variant
with no effect	L18A
with no effect	L19A
